Assays:
Experiment in all cases: EnzChek phosphate release assay (PNP-coupled, A360)
[1] = substrate: Nc1ncnc2c1ncn2[C@@H]1O[C@H](COP(=O)(O)OP(=O)(O)OP(=O)(O)O)[C@@H](O)[C@H]1O; type: biochemical, Arabidopsis thaliana; settings: 37 °C, pH 7.5, 5 mM MgCl2, 15 μM enzyme, 0-2 mM ATP
[2] = substrate: Nc1ncnc2c1ncn2[C@@H]1O[C@H](COP(=O)(O)OP(=O)(O)OP(=O)(O)O)[C@@H](O)[C@H]1O; type: biochemical, Saccharomyces cerevisiae; settings: 37 °C, pH 7.5, 5 mM MgCl2, 2.5 μM enzyme, 0-2 mM ATP
[3] = substrate: Nc1ncnc2c1ncn2[C@@H]1O[C@H](COP(=O)(O)OP(=O)(O)OP(=O)(O)O)[C@@H](O)[C@H]1O; type: biochemical, Nostoc sp. PCC 7120 = FACHB-418; settings: 37 °C, pH 7.5, 5 mM MgCl2, 15 μM enzyme, 0-2 mM ATP

B1: AtGet3d (Arabidopsis thaliana) (protein)
chain: TKFVTFLGKGGSGKTTAAVFAAQHYALAGLSTCLVIHNQDPSAEFLLGSKIGTSPTLINDNLSVIRLETTKMLLEPLKQLKQADARLNMTQGVLEGVVGEELGVLPGMDSIFSMLELERLVGFFRQATRKNHKGKPFDVIIYDGISTEETLRMIGLSSKTRLYAKYLRSLAEKTDLGRLTSPSIMRFVDESMNINSNKSPFDGMTSPAMWDTLERFLETGASAWRDPERFRSFLVMDPNNPMSVKAALRYWGCTVQAGSHVSGAFAISSSHLTSQIPKADFVPLPFASASVPFTITGLDWDKILLDQANSSIRELLSETVSHGTSLTQTVMFDTAKKLVTLFMPGFEKSEIKLYQYRGGSELLIEAGDQRRVIHLPSQIQGKVGGAKFVDRSLIVTMR
notes: delta1-57 (chloroplast transit peptide removed), expressed in E. coli; ATPase assay: N-terminal His6-3C tag; crystal: pET22b(+) NdeI-XhoI construct; homodimer
Km [1]: 351 ± 4 µM | kcat [1]: 0.0183 ± 0.00017 s⁻¹

B2: ScGet3 (yeast Get3) (Saccharomyces cerevisiae S288C) (protein)
chain: MDLTVEPNLHSLITSTTHKWIFVGGKGGVGKTTSSCSIAIQMALSQPNKQFLLISTDPAHNLSDAFGEKFGKDARKVTGMNNLSCMEIDPSAALKDMNDMAVSRANNNGSDGQGDDLGSLLQGGALADLTGSIPGIDEALSFMEVMKHIKRQEQGEGETFDTVIFDTAPTGHTLRFLQLPNTLSKLLEKFGEITNKLGPMLNSFMGAGNVDISGKLNELKANVETIRQQFTDPDLTTFVCVCISEFLSLYETERLIQELISYDMDVNSIIVNQLLFAENDQEHNCKRCQARWKMQKKYLDQIDELYEDFHVVKMPLCAGEIRGLNNLTKFSQFLNKEYNPITDGKVIYELEDKE
notes: N-terminal His6-TEV tag (pET33b), expressed in E. coli
Km [2]: 48 ± 2 µM | kcat [2]: 0.045 ± 0.00033 s⁻¹

B3: NosGet3d (Nostoc sp. PCC 7120 = FACHB-418) (protein)
chain: MALILTFLGKSGVARTKIAIAAAKLLASQGKRVLLAGLAEPVLPLLLEQTLTPDPQQIAPNLEVVQFQSSVLLERNWEEVKKLEAQYLRTPIIKEVYGQELVVLPGMDSALALNAIREYDASGKYDAIVYDGTGDAFTLRMLGLPESLSWYVRRFRQLFVNSDLGKTIAESPLIQPLISSFFNVNWTADNFAQPTNQVNNFLDKGKEALADPKRVAAFLVTTADPLEVVSVRYLWGSAQQIGLTIGGVIQVSSQTEGDLSAEFTPLSVTVVPDVTKGDWQPLIDALPNFVEQAEQAPKPITIDTHNRQVRLFLPGFDKKQVKLTQYGPEVTVEAGDQRRNIFLPPALSGRPITGAKFQNNYLIISF
notes: N-terminal His6-TEV tag (pET33b), expressed in E. coli; homodimer
Km [3]: 353 ± 10 µM | kcat [3]: 0.00467 ± 0.00017 s⁻¹

Reference: publication PMC10248533, “Structures of Get3d reveal a distinct architecture associated with the emergence of photosynthesis” (The Journal of Biological Chemistry, 2023)
